Measurements: IntAct's records for PubMed 16183855

B1: Caspase-8 (Homo sapiens), Q14790 (parent)
chain: MDFSRNLYDIGEQLDSEDLASLKFLSLDYIPQRKQEPIKDALMLFQRLQEKRMLEESNLSFLKELLFRINRLDLLITYLNTRKEEMERELQTPGRAQISAYRVMLYQISEEVSRSELRSFKFLLQEEISKCKLDDDMNLLDIFIEMEKRVILGEGKLDILKRVCAQINKSLLKIINDYEEFSKERSSSLEGSPDEFSNGEELCGVMTISDSPREQDSESQTLDKVYQMKSKPRGYCLIINNHNFAKAREKVPKLHSIRDRNGTHLDAGALTTTFEELHFEIKPHDDCTVEQIYEILKIYQLMDHSNMDCFICCILSHGDKGIIYGTDGQEAPIYELTSQFTGLKCPSLAGKPKVFFIQACQGDNYQKGIPVETDSEEQPYLEMDLSSPQTRYIPDEADFLLGMATVNNCVSYRNPAEGTWYIQSLCQSLRERCPRGDDILTILTEVNYEVSNKDDKKNMGKQMPQPTFTLRKKLVFPSD

Variants of: B1
Details: with bcl2_human BCL2, P10415
Chain of bcl2_human BCL2, P10415 (P10415 whole entry): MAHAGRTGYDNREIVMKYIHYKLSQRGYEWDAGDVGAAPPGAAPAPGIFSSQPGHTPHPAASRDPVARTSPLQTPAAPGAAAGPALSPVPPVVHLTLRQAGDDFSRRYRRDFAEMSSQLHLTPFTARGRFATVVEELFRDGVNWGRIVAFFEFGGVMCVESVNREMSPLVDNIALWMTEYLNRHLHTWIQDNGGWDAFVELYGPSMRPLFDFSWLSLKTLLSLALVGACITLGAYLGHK

| effect of a mutation on the interaction | Variant |
| --- | --- |
| increasing interaction | MDFSRNLYDIGEQLDSEDLASLKFLSLDYIPQRKQEPIKDALMLFQRLQEKRMLEESNLSFLKELLFRINRLDLLITYLNTRKEEMERELQTPGRAQISAYRVMLYQISEEVSRSELRSFKFLLQEEISKCKLDDDMNLLDIFIEMEKRVILGEGKLDILKRVCAQINKSLLKIINDYEEFSKERSSSLEGSPDEFSNGEELCGVMTISDSPREQDSESQTLDKVYQMKSKPRGYCLIINNHNFAKAREKVPKLHSIRDRNGTHLDAGALTTTFEELHFEIKPHDDCTVEQIYEILKIYQLMDHSNMDCFICCILSHGDKGIIYGTDGQEAPIYELTSQFTGLKCPSLAGKPKVFFIQASQGDNYQKGIPVETDSEEQPYLEMDLSSPQTRYIPDEADFLLGMATVNNCVSYRNPAEGTWYIQSLCQSLRERCPRGDDILTILTEVNYEVSNKDDKKNMGKQMPQPTFTLRKKLVFPSD [C360S] |
